Source: patent publication US20230242616A1 (LUDWIG MAXIMILIANS UNIVERSIT T M NCHEN, published 2023)
Where no end group is shown, it is not given here.

Columns and labels:
[1] = target: T1, human macrophage migration-inhibitory factor (MIF) (human, UniProt P14174 2-115, limits assumed, Alexa-Fluor 488 or Monolith NT-647 (MST-Red) label where so named); experiment: cell-based or functional assay
[2] = target: T1, human macrophage migration-inhibitory …; experiment: fluorescence spectroscopic binding assay
[3] = target: T1, human macrophage migration-inhibitory …; experiment: fluorescence spectroscopic titration
[4] = target: T1, human macrophage migration-inhibitory …; experiment: fluorescence spectroscopic titration, apparent Kd; Alexa-488-MIF titrated with ngm
Description: (§1) Peptides were dissolved and analyzed by MALDI-TOF-MS; ^{[a]}Peptides were synthesized with free amino-N-terminal and amidated C-terminal; ^{[b]}monoisotopic molar mass with an additional hydrogen [M + H]⁺; ^{[c]} App. Kds, are means (±SD) from three independent titration experiments which were performed in aqueous […], pH 7.4, containing 1% HFIP.
(§2) Fluorescence spectroscopy. Fluorescence spectroscopic titrations were performed as described^{28, 32}. Fluorescence spectra were recorded using a JASCO FP-6500 fluorescence spectrophotometer. […] Apparent KD values (app. KD) were calculated assuming a 1/1 binding model³².

[5] = target: T1, human macrophage migration-inhibitory …; experiment: fluorescence spectroscopic titration, apparent Kd; Fluos-ngm titrated with MIF
Description: as §1, §2

[6] = target: T1, human macrophage migration-inhibitory …; experiment: fluorescence spectroscopic titration; row labelled msR4M-L5 but with the K-K-K linker
Description: as §1, §2

[7] = target: T1, human macrophage migration-inhibitory …; experiment: fluorescence spectroscopic titration of Fluos-ngm-LD3 with increasing MIF [panel B]
Description: as §2

T1 sequence (P14174 2-115 limits assumed): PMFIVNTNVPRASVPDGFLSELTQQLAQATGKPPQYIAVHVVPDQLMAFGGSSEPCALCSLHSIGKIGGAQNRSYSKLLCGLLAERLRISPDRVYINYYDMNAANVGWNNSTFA

Row | Binder | inhibitory capacity in the Dil-LDL foam cell assay [1] | Kd [2] [nM] | Kd [4] [nM] | Kd [5] [nM] | other results
1 | ANWYFGNFLCK-NH2 [ECL1 fragment 100-110] | ~80 % of full-length msR4M-L1 | 215 |  |  | 
2 | WYFGNFLCKRRRDRFYPNDLW-NH2 (designed binder, not fully specified; printed as WYFGNFLCK-RRR-DRFYPNDLW, also called ngm-LR3; msR4M-R3) [msR4M-LR3 ([ECL1(102-110)]-R-R-R-[ECL2(187-195)])] |  |  | 110 | 16.8 | Kd [3]: 22 nM
3 | ICDRFYPNDLW-NH2 [ECL2 fragment 185-195] | ~80 % of full-length msR4M-L1 | 324 |  |  | 
4 | WYFGNFLCKKKKDRFYPNDLW-NH2 (designed binder, not fully specified; printed as WYFGNFLCK-KKK-DRFYPNDLW, also called ngm-LK3; msR4M-K3) [msR4M-LK3 ([ECL1(102-110)]-K-K-K-[ECL2(187-195)])] |  |  | 44.8 | 36.4 | Kd [6]: 30 to 40 nM
5 | NWYFGNFLCK-NH2 [ECL1 fragment 101-110] | ~80 % of full-length msR4M-L1 | 51 |  |  | 
6 | DRFYPNDLW-NH2 [ECL2(187-195)] | ~80 % of full-length msR4M-L1 | 286 |  |  | 
7 | WYFGNFLCKDDDDRFYPNDLW-NH2 (designed binder, not fully specified; printed as WYFGNFLCK-DDD-DRFYPNDLW, also called ngm-LD3; msR4M-D3) [msR4M-LD3 ([ECL1(102-110)]-D-D-D-[ECL2(187-195)])] |  |  | 246 | 36 | EC50 (read off the curve) [7]: ~30 nM; Kd [3]: 33 nM; IC50 of inhibition of MIF-mediated monocyte migration (3D, single cell tracking) [1]: 18.4 nM; IC50 of inhibition of MIF-triggered Dil-oxLDL uptake (foam cell assay) [1]: 1.4 nM
8 | WYFGNFLCK-NH2 [ECL1(102-110)] | ~80 % of full-length msR4M-L1 | 80 |  |  | 
